# Source: IntAct's records for PubMed 20098421
# B1: Trinucleotide repeat-containing gene 6C protein (Homo sapiens), Q9HCJ0-1 (parent)
# chain: MATGSAQGNFTGHTKKTNGNNGTNGALVQSPSNQSALGAGGANSNGSAARVWGVATGSSSGLAHCSVSGGDGKMDTMIGDGRSQNCWGASNSNAGINLNLNPNANPAAWPVLGHEGTVATGNPSSICSPVSAIGQNMGNQNGNPTGTLGAWGNLLPQESTEPQTSTSQNVSFSAQPQNLNTDGPNNTNPMNSSPNPINAMQTNGLPNWGMAVGMGAIIPPHLQGLPGANGSSVSQVSGGSAEGISNSVWGLSPGNPATGNSNSGFSQGNGDTVNSALSAKQNGSSSAVQKEGSGGNAWDSGPPAGPGILAWGRGSGNNGVGNIHSGAWGHPSRSTSNGVNGEWGKPPNQHSNSDINGKGSTGWESPSVTSQNPTVQPGGEHMNSWAKAASSGTTASEGSSDGSGNHNEGSTGREGTGEGRRRDKGIIDQGHIQLPRNDLDPRVLSNTGWGQTPVKQNTAWEFEESPRSERKNDNGTEAWGCAATQASNSGGKNDGSIMNSTNTSSVSGWVNAPPAAVPANTGWGDSNNKAPSGPGVWGDSISSTAVSTAAAAKSGHAWSGAANQEDKSPTWGEPPKPKSQHWGDGQRSNPAWSAGGGDWADSSSVLGHLGDGKKNGSGWDADSNRSGSGWNDTTRSGNSGWGNSTNTKANPGTNWGETLKPGPQQNWASKPQDNNVSNWGGAASVKQTGTGWIGGPVPVKQKDSSEATGWEEPSPPSIRRKMEIDDGTSAWGDPSNYNNKTVNMWDRNNPVIQSSTTTNTTTTTTTTTSNTTHRVETPPPHQAGTQLNRSPLLGPGRKVSSGWGEMPNVHSKTENSWGEPSSPSTLVDNGTAAWGKPPSSGSGWGDHPAEPPVAFGRAGAPVAASALCKPASKSMQEGWGSGGDEMNLSTSQWEDEEGDVWNNAASQESTSSCSSWGNAPKKGLQKGMKTSGKQDEAWIMSRLIKQLTDMGFPREPAEEALKSNNMNLDQAMSALLEKKVDVDKRGLGVTDHNGMAAKPLGCRPPISKESSVDRPTFLDKDGGLVEEPTPSPFLPSPSLKLPLSHSALPSQALGGIASGLGMQNLNSSRQIPSGNLGMFGNSGAAQARTMQQPPQPPVQPLNSSQPSLRAQVPQFLSPQVQAQLLQFAAKNIGLNPALLTSPINPQHMTMLNQLYQLQLAYQRLQIQQQMLQAQRNVSGSMRQQEQQVARTITNLQQQIQQHQRQLAQALLVKQPPPPPPPPHLSLHPSAGKSAMDSFPSHPQTPGLPDLQTKEQQSSPNTFAPYPLAGLNPNMNVNSMDMTGGLSVKDPSQSQSRLPQWTHPNSMDNLPSAASPLEQNPSKHGAIPGGLSIGPPGKSSIDDSYGRYDLIQNSESPASPPVAVPHSWSRAKSDSDKISNGSSINWPPEFHPGVPWKGLQNIDPENDPDVTPGSVPTGPTINTTIQDVNRYLLKSGGKLSDIKSTWSSGPTSHTQASLSHELWKVPRNSTAPTRPPPGLTNPKPSSTWGASPLGWTSSYSSGSAWSTDTSGRTSSWLVLRNLTPQIDGSTLRTLCLQHGPLITFHLNLTQGNAVVRYSSKEEAAKAQKSLHMCVLGNTTILAEFAGEEEVNRFLAQGQALPPTSSWQSSSASSQPRLSAAGSSHGLVRSDAGHWNAPCLGGKGSSELLWGGVPQYSSSLWGPPSADDSRVIGSPTPLTTLLPGDLLSGESL
# B2: Trinucleotide repeat-containing gene 6C protein (Homo sapiens), Q9HCJ0 (parent)
# chain: MEEKKKKKQEEKKKKEGAQKKAADQKTKVPEPTKTCSSQPQPAGTSTSTSTSTISSSNNGKRASASGQQPAASRYLPREVPPRFRQQEQKQLLKRGQPLPTGTLTSVSPTQGAGPAGVSPPPLPGAGTQHHPSKLQPDLSHSGLADHYENSHWGQQPTYRSEANCSWDKVIIDRTDKEAWPSITGTETESASECTTDTDSASNCGSENSSMATGSAQGNFTGHTKKTNGNNGTNGALVQSPSNQSALGAGGANSNGSAARVWGVATGSSSGLAHCSVSGGDGKMDTMIGDGRSQNCWGASNSNAGINLNLNPNANPAAWPVLGHEGTVATGNPSSICSPVSAIGQNMGNQNGNPTGTLGAWGNLLPQESTEPQTSTSQNVSFSAQPQNLNTDGPNNTNPMNSSPNPINAMQTNGLPNWGMAVGMGAIIPPHLQGLPGANGSSVSQVSGGSAEGISNSVWGLSPGNPATGNSNSGFSQGNGDTVNSALSAKQNGSSSAVQKEGSGGNAWDSGPPAGPGILAWGRGSGNNGVGNIHSGAWGHPSRSTSNGVNGEWGKPPNQHSNSDINGKGSTGWESPSVTSQNPTVQPGGEHMNSWAKAASSGTTASEGSSDGSGNHNEGSTGREGTGEGRRRDKGIIDQGHIQLPRNDLDPRVLSNTGWGQTPVKQNTAWEFEESPRSERKNDNGTEAWGCAATQASNSGGKNDGSIMNSTNTSSVSGWVNAPPAAVPANTGWGDSNNKAPSGPGVWGDSISSTAVSTAAAAKSGHAWSGAANQEDKSPTWGEPPKPKSQHWGDGQRSNPAWSAGGGDWADSSSVLGHLGDGKKNGSGWDADSNRSGSGWNDTTRSGNSGWGNSTNTKANPGTNWGETLKPGPQQNWASKPQDNNVSNWGGAASVKQTGTGWIGGPVPVKQKDSSEATGWEEPSPPSIRRKMEIDDGTSAWGDPSNYNNKTVNMWDRNNPVIQSSTTTNTTTTTTTTTSNTTHRVETPPPHQAGTQLNRSPLLGPVSSGWGEMPNVHSKTENSWGEPSSPSTLVDNGTAAWGKPPSSGSGWGDHPAEPPVAFGRAGAPVAASALCKPASKSMQEGWGSGGDEMNLSTSQWEDEEGDVWNNAASQESTSSCSSWGNAPKKGLQKGMKTSGKQDEAWIMSRLIKQLTDMGFPREPAEEALKSNNMNLDQAMSALLEKKVDVDKRGLGVTDHNGMAAKPLGCRPPISKESSVDRPTFLDKDGGLVEEPTPSPFLPSPSLKLPLSHSALPSQALGGIASGLGMQNLNSSRQIPSGNLGMFGNSGAAQARTMQQPPQPPVQPLNSSQPSLRAQVPQFLSPQVQAQLLQFAAKNIGLNPALLTSPINPQHMTMLNQLYQLQLAYQRLQIQQQMLQAQRNVSGSMRQQEQQVARTITNLQQQIQQHQRQLAQALLVKQPPPPPPPPHLSLHPSAGKSAMDSFPSHPQTPGLPDLQTKEQQSSPNTFAPYPLAGLNPNMNVNSMDMTGGLSVKDPSQSQSRLPQWTHPNSMDNLPSAASPLEQNPSKHGAIPGGLSIGPPGKSSIDDSYGRYDLIQNSESPASPPVAVPHSWSRAKSDSDKISNGSSINWPPEFHPGVPWKGLQNIDPENDPDVTPGSVPTGPTINTTIQDVNRYLLKSGGSSPPSSQNATLPSSSAWPLSASGYSSSFSSIASAPSVAGKLSDIKSTWSSGPTSHTQASLSHELWKVPRNSTAPTRPPPGLTNPKPSSTWGASPLGWTSSYSSGSAWSTDTSGRTSSWLVLRNLTPQIDGSTLRTLCLQHGPLITFHLNLTQGNAVVRYSSKEEAAKAQKSLHMCVLGNTTILAEFAGEEEVNRFLAQGQALPPTSSWQSSSASSQPRLSAAGSSHGLVRSDAGHWNAPCLGGKGSSELLWGGVPQYSSSLWGPPSADDSRVIGSPTPLTTLLPGDLLSGESL
# Variants of: B1
# Details: with pabp1_human PABPC1, P11940
row,effect of a mutation on the interaction,Variant
1,disrupting interaction,E1388A;F1389A;W1395A;K1396A

# Variants of: B2
# Details: with pabp1_human PABPC1, P11940
# Target sequence in this assay (P11940 whole entry): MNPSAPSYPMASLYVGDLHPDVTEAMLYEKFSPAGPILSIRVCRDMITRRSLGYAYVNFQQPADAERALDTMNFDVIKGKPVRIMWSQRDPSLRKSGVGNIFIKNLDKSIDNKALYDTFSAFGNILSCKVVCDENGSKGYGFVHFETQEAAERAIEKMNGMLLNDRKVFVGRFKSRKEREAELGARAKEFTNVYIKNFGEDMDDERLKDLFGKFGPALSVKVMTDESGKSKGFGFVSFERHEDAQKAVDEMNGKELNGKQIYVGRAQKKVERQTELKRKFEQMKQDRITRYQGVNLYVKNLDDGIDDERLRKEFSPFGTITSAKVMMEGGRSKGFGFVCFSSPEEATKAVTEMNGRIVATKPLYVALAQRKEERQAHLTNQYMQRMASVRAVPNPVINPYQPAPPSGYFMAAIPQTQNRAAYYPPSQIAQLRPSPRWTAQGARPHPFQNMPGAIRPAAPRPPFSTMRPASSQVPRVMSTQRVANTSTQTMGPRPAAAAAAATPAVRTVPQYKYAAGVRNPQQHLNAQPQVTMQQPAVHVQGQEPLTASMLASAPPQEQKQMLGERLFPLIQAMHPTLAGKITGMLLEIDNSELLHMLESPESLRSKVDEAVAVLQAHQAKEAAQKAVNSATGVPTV
row,effect of a mutation on the interaction,Variant
1,disrupting interaction,W1602A;K1603A
2,disrupting interaction,E1595A;F1596A
